Assay results reported in paper PMC6468809, “Structural Analysis of the 42 kDa Parvulin of Trypanosoma brucei” (Biomolecules, 2019).
*1 amine or outer side, *2 acyl side, *3 side chain or, on linkers, in order; H or OH if unused. [ ]: non-standard residue; d: D form. pT = C[C@@H](OP(=O)(O)O)[C@H](N)C(=O)O; Suc = O=C(CCC(=O)[*:2])[*:1]

Biological target: TbPar42 N-terminal extended FHA domain (1-177) (T. brucei)
Test: NMR titration; 440 uM 15N-labelled NterFHA or PPIase in 50 mM potassium phosphate, pH 6.26, 90%/10% H2O/D2O; peptide added stepwise to 13 mM; 1H-15N-HSQC or SOFAST spectra, 700 MHz, 27 °C

B1: Suc-Ala-pThr-Pro-Ala-NH2 (peptide)
peptide: Suc-A[pT]PA-NH2
SMILES: C[C@H](NC(=O)[C@@H]1CCCN1C(=O)[C@@H](NC(=O)[C@H](C)NC(=O)CCC(=O)O)[C@@H](C)OP(=O)(O)O)C(N)=O
Kd: 4 mM
